In patent publication US20160311911A1, “METHODS FOR TREATING ALLERGIC AIRWAY INFLAMMATION” (priority 2015, published 2016):

Columns and labels:
[1] = target: TLR4 on TLR4^Hi HEK 293 cells (TLR4^Hi, CD14^Null, MD2^Null; InvivoGen) (UniProt O00206); test: flow cytometry; HEK 293 cells incubated with 100 ug/mL BODIPY-RWPE for 30 minutes on ice, then washed
[2] = target: TLR4, CD14 and MD2 on TCM^Hi HEK 293 cells (TLR4^Hi, CD14^Hi, MD2^Hi; InvivoGen) (UniProt O00206); test: as above
Chain of TLR4, CD14 and MD2 on TCM^Hi HEK 293 cells (TLR4^Hi, CD14^Hi, MD2^Hi; InvivoGen) (O00206 24-839 limits assumed, chain 1 of 3): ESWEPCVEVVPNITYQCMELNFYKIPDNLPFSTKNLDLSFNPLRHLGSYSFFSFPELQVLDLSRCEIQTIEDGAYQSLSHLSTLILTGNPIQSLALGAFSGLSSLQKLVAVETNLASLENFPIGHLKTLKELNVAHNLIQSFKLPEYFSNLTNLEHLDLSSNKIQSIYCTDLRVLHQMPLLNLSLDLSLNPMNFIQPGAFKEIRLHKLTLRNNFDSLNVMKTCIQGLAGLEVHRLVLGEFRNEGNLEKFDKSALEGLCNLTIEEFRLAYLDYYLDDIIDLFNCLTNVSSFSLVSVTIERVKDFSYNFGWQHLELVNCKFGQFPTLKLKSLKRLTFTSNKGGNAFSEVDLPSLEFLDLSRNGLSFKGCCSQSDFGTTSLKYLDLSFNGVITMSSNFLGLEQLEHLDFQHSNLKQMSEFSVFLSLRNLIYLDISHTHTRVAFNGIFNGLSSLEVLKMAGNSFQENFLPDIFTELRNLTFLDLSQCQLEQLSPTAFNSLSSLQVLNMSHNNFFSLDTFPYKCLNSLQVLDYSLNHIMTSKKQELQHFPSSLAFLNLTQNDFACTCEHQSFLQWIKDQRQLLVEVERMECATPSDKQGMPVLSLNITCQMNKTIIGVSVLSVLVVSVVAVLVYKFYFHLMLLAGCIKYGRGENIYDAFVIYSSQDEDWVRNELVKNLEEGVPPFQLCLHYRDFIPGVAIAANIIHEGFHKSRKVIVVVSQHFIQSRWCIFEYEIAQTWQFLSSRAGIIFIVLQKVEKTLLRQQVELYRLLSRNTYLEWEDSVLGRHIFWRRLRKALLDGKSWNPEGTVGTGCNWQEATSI
Chain of TLR4, CD14 and MD2 on TCM^Hi HEK 293 cells (TLR4^Hi, CD14^Hi, MD2^Hi; InvivoGen) (P08571 20-345 limits assumed, chain 2 of 3, further chain): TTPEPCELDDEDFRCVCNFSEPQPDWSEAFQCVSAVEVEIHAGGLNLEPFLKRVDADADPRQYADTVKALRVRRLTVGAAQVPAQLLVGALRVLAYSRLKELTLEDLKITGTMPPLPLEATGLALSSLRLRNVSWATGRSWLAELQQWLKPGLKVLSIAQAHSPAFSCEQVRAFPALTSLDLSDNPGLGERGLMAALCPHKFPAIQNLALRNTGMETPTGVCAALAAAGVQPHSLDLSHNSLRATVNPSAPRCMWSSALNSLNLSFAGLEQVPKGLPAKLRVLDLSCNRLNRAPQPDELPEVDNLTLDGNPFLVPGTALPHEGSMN
Chain of TLR4, CD14 and MD2 on TCM^Hi HEK 293 cells (TLR4^Hi, CD14^Hi, MD2^Hi; InvivoGen) (Q9Y6Y9 19-160 limits assumed, chain 3 of 3, further chain): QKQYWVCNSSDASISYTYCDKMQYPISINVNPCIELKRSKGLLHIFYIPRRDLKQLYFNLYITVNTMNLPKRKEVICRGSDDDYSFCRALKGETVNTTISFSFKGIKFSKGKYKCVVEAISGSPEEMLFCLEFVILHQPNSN

Chain of TLR4 on TLR4^Hi HEK 293 cells (TLR4^Hi, CD14^Null, MD2^Null; InvivoGen) (O00206 24-839 limits assumed): as the sequence (O00206 24-839 limits assumed, chain 1 of 3) above

BODIPY-RWPE staining (% by FACS) [1]: < 3% | BODIPY-RWPE staining (% by FACS) [2]: 12.9%
Substance: BODIPY-labeled ragweed pollen extract (RWPE)
